One substance from article PMC4850266 can be followed below.

The target of this assay is A. fumigatus FKBP12(V91C) (Aspergillus fumigatus). Nature of the assay: cross-linking; disulfide trapping through the single cysteine V91C; protein purified from C41(DE3) and SHuffle cells without reducing agent; nonreducing SDS-PAGE.

Usually stoichiometry N stands for the number of molecules, sites or subunits per partner or assembly.

A. fumigatus FKBP12(V91C) (enzyme) came in with a stoichiometry N of 2.
